These results are taken from patent US20070212357A1 (published 2007).

Where a chain is given by its changes, count along the chain named.

In assay [1] the target is T1, human NGF (human, UniProt P01138 122-241).
T1 construct: also called hNGF; human nerve growth factor
In words: cell-based or functional assay.

A further assay concerns the target rat NGF (rat) (UniProt P25427). In words: cell-based or functional assay.
Assay [2] deals with T1, human NGF. In words: SPR (BIAcore), Fab over CM5 chip with 100 RU of immobilized human NGF.
Assay [3] addresses T1, human NGF. The assay can be described thus: SPR (BIAcore), Fab over immobilized human NGF. On the technique in general: SPR reads the build-up and loss of mass on a sensor chip optically.
For assay [4], the target named is T1, human NGF. The assay can be described thus: SPR (BIAcore), Fab over immobilized human NGF. This is another data set of the same source.
Assay [5] deals with T1, human NGF. The assay can be described thus: SPR (BIAcore), human NGF on chip; KD calculated using kon 4e4 M-1s-1.
The target in assay [6] is T1, human NGF. In words: SPR (BIAcore) screening, human NGF on chip; KD calculated using kon 4e4 M-1s-1. As for the experimental part: Affinities of anti-NGF Fabs and monoclonal antibodies were determined using the BIAcore3000™ surface plasmon resonance (SPR) system (BIAcore, INC, Piscaway N.J.). CM5 chips were activated with N-ethyl-N′-(3-dimethylaminopropyl)-carbodiinide hydrochloride (EDC) and N-hydroxysuccinimide (NHS) according to the supplier's instructions. Human NGF was diluted into 10 mM sodium acetate pH 4.0 and injected over the activated chip at a concentration of 0.005 mg/mL. Using variable flow time across the individual chip channels, two ranges of antigen density were achieved: 100-200 response units (RU) for detailed kinetic studies and 500-600 RU for screening assays. The chip was blocked with ethanolamine. […] HBS-EP buffer (0.01M HEPES, pH 7.4, 0.15 NaCl, 3 mM EDTA, 0.005% Surfactant […]) was used as running buffer for all the BIAcore assays.

T1 sequence (P01138 122-241 limits assumed): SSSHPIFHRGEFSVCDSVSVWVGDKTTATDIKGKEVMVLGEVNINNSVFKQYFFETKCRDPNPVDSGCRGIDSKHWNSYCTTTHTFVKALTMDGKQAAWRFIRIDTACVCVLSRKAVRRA
Sequence of rat NGF (rat) (P25427 122-241 limits assumed): as the sequence (P01138 122-241 limits assumed) above, with S3T, I6V, R9M, M37T, D60A, D65E, M92T, G94D, V117A, A120G counted along it

A word on the koff: it is the rate constant with which the complex falls apart. Low readings indicate a long-lived complex, high ones a short-lived complex. One may read the Kd as a measure of binding affinity in units of concentration. One may read the kon as a measure of how fast the partners come together. Read a low kon as slower complex formation. Turning to mouse antibody 911 (Fab), in the assay with human NGF [1], the IC50 (in the presence of 1.5 pM NGF), human NGF-dependent survival of mouse E13.5 trigeminal neurons stood at 63.5 pM and the IC50 (in the presence of 15 pM NGF), human NGF-dependent survival of mouse E13.5 trigeminal neurons was 322 pM. In the assay with rat NGF (rat), this molecule registered an IC50 (1.5 pM NGF), rat NGF-dependent survival of mouse E13.5 trigeminal neurons of 34.6 pM and an IC50 (15 pM NGF), rat NGF-dependent survival of mouse E13.5 trigeminal neurons of 161 pM. Moreover, in the assay with human NGF [2], the koff worked out at 8.4e-05 s⁻¹. In the assay with human NGF [3], this molecule came in with a Kd of 3.7 nM, a koff of 9e-05 s⁻¹ and a kon of 22000 M⁻¹ s⁻¹. The Kd with human NGF [4] turned out to be 10 nM.

B1: H19-L129 (Fab, V domains shown)
VH: QVQLQESGPGLVKPSETLSLTCTVSGFSLIGYDLNWIRQPPGKGLEWIGIIWGDGTTDYNSAVKSRVTISKDTSKNQFSLKLSSVTAADTAVYYCARGGYYYGTSYYFDYWGQGTLVTVS
VL: DIQMTQSPSSLSASVGDRVTITCRASQSISNNLNWYQQKPGKAPKLLIYYTSRFHSGVPSRFSGSGSGTDFTFTISSLQPEDIATYYCQQSKTLPYTFGQGTKLEIKR
notes: Combined clone with matured CDRs H1, H2, L1, L2 and grafted H3 and L3; Fab; human Ck, human IgG2a CH1, his tag; also called H19-L129 Fab; Fab H19-L129
B1: the dissociation constant Kd with human NGF [5] is 3.5 nM.

B2: L_S91E; L_K92R; H_Y101W; H_G103A (8L2-6D5 template) (Fab, V domains shown)
VH: B1 VH with L34I, I50M, V63L, Y101W, G103A
VL: B1 VL with S28D, N32H, T51I, S91E, K92R
notes: Human Ck, human IgG2a CH1, his tag
With B2, the Kd with human NGF [6] was 25 nM.
